What was measured:
[1] = molecular target: T1, recombinant human CXCL9 (human, UniProt Q07325 23-125); test: ELISA (Example 14, conditions of Example 7): plate coated with 1 µg/ml of the antigen, antibody at the highest concentration of the titration, anti-IgG-HRP, TMB
T1 sequence (looked up): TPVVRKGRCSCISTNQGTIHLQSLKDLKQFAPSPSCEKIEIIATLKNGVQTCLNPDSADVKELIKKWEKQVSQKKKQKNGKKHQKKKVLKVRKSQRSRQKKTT

[2] = molecular target: T2, recombinant human neurotrophin-3 (human, UniProt P20783 139-257); test: as above
T2 construct: also called NT3; NT-3
T2 sequence (looked up): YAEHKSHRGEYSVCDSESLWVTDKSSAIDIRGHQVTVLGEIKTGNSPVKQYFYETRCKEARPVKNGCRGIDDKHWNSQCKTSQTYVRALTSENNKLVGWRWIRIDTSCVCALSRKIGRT

[3] = molecular target: T3, recombinant human CXCL13 (human, UniProt O43927 23-109); test: as above
T3 sequence (looked up): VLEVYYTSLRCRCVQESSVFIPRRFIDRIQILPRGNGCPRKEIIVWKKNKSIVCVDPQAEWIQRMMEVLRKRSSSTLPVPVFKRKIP

[4] = molecular target: T4, p75NTR receptor (immobilised on the SPR flow cell) (Homo sapiens (Human), UniProt P08138 29-250); test: as above
T4 construct: also called p75 neurotrophic receptor; LNGFR
T4 sequence: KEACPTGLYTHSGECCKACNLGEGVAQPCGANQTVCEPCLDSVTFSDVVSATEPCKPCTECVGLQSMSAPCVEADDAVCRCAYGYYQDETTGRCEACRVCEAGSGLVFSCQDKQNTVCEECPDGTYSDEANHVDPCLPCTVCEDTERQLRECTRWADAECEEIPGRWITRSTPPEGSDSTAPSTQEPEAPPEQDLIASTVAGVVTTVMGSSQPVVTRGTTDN

[5] = molecular target: T5, recombinant CXCL3 (Homo sapiens (Human), UniProt P19876 35-107); test: as above
T5 sequence: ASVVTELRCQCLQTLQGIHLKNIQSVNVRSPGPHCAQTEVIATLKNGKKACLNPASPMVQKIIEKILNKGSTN

[6] = molecular target: T6, recombinant human beta-NGF (human, UniProt P01138 122-241); test: as above
T6 construct: also called β-NGF; Nerve Growth Factor
T6 sequence (P01138 122-241 limits assumed): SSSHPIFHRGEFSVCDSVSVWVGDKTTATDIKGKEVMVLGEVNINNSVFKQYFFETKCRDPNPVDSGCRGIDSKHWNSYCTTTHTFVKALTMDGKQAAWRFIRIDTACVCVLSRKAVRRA

[7] = molecular target: T7, recombinant human neurotrophin-4 (human, UniProt P34130 81-210); test: as above
T7 construct: also called NT4; NT-4
T7 sequence (looked up): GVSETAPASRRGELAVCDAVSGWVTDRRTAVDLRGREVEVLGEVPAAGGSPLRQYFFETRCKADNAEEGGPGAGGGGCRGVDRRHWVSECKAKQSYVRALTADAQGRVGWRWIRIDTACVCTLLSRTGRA

[8] = molecular target: T8, recombinant human CXCL10 (human, UniProt P02778 22-98); test: as above
T8 sequence (looked up): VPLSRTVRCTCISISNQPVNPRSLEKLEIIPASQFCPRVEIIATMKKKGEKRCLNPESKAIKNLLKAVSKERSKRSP

[9] = molecular target: T9, human brain-derived neurotrophic factor (BDNF) (human, UniProt P23560 129-247); test: competition HTRF (Example 12): 1 nM biotinylated human BDNF, europium cryptate labelled H1, SA-XL665, unlabelled antibody titrated; competitor: labelled H1; x axis is log10 of pM by the text
T9 construct: In the HTRF assays the BDNF was biotinylated; also called hBDNF; human BDNF
T9 sequence: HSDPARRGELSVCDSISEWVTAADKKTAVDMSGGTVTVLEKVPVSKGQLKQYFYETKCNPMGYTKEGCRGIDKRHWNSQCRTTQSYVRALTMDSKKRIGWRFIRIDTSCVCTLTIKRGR

[10] = molecular target: T9, human brain-derived neurotrophic factor …; test: cell-based or functional assay
[11] = molecular target: T10, endogenous rat BDNF in plasma (rat, UniProt P23363 131-249, limits assumed); test: ligand-binding assay (Gyrolab) for total BDNF in plasma of dosed rats
T10 construct: also called endogenous BDNF
T10 sequence (looked up): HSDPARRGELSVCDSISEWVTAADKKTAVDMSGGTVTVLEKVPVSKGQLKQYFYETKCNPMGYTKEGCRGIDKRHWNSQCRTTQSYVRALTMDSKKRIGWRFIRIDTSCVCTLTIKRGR

[12] = molecular target: T9, human brain-derived neurotrophic factor …; test: SPR, Biacore T200; immobilised human BDNF; 37 C
[13] = molecular target: T9, human brain-derived neurotrophic factor …; test: SPR, Biacore T200; human BDNF amine-coupled to CM5, antibody injected; 1:1 Langmuir; 37 C
[14] = molecular target: T9, human brain-derived neurotrophic factor …; test: SPR, Biacore T200; immobilised human BDNF; 37 C (same data as Table 10)
[15] = molecular target: T1, recombinant human CXCL9; test: ELISA (Example 7): plate coated with 1 µg/ml of the antigen, antibody at the highest concentration of the titration, anti-IgG-HRP, TMB
[16] = molecular target: T2, recombinant human neurotrophin-3; test: as above
[17] = molecular target: T3, recombinant human CXCL13; test: as above
[18] = molecular target: T4, p75NTR receptor (immobilised on the SPR …); test: as above
[19] = molecular target: T6, recombinant human beta-NGF; test: as above
[20] = molecular target: T7, recombinant human neurotrophin-4; test: as above
[21] = molecular target: T8, recombinant human CXCL10; test: as above

B1: humanised affinity matured anti-BDNF antibody B30 (antibody, V domains shown)
VH: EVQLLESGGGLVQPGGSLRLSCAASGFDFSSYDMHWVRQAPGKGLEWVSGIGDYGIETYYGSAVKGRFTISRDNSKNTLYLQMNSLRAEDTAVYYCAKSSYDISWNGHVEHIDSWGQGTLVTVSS
VL: SSELTQPPAVSVALGQTVRITCSGAGSGYGYGWYQQKPGQAPVTVIYSNDKRPSGIPDRFSGSSSGNTASLTITGAQAEDEADYYCGTYVSAYYGYAIFGGGTKLTVL
B1: no binding (tested: 300 µg/mL) [1]; no binding (tested: 300 µg/mL) [2]; no binding (tested: 300 µg/mL) [3]. B1: no binding (tested: 300 µg/mL) [4]; no binding (tested: 300 µg/mL) [5]; no binding (tested: 300 µg/mL) [6]. For the same binder, the binding result [7] was “no binding (tested: 300 µg/mL)”, the binding result [8] was “no binding (tested: 300 µg/mL)” and the “IC50 (read off the curve)” value [9] was roughly 1 nM. The “PathHunter pTrkB assay in U2OS TrkB/p75NTR cells, 300 pM BDNF” value (“PathHunter pTrkB assay” for short) [10] was 0.54 nM, the “pERK assay in U2OS TrkB/p75NTR cells, 150 pM BDNF” value (“pERK assay” for short) [10] was 1.3 nM and the binding result [11] was “binds”. The Kd [12] was 0.12 nM, the “T1/2” value [12] was 5.58 h and the koff [12] was 3.5e-05 s⁻¹. It also gave a kon [12] of 290000 M⁻¹ s⁻¹.

B2: humanised affinity-optimized anti-BDNF antibody B20 (antibody, V domains shown)
VH: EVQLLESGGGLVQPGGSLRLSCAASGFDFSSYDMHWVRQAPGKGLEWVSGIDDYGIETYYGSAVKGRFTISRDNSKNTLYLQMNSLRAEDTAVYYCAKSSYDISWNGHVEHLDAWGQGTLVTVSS
VL: SSELTQPPAVSVALGQTVRITCSGAGSGYGYGWYQQKPGQAPVTVIYSNDKRPSGIPDRFSGSSSGNTASLTITGAQAEDEADYYCGTYDSTDAGYAIFGGGTKLTVL
B2: no binding (tested: 300 µg/mL) [1]; no binding (tested: 300 µg/mL) [2]; no binding (tested: 300 µg/mL) [3]. B2: no binding (tested: 300 µg/mL) [4]; no binding (tested: 300 µg/mL) [5]; no binding (tested: 300 µg/mL) [6]. The binding result [7] was “no binding (tested: 300 µg/mL)”, the binding result [8] was “no binding (tested: 300 µg/mL)” and the “IC50 (read off the curve)” value [9] was roughly 1 nM. The “PathHunter pTrkB assay” value [10] was 0.31 nM, the “pERK assay” value [10] was 1.1 nM and the Kd [12] was 0.55 nM. The “T1/2” value [12] was 1.26 h, the koff [12] was 0.000154 s⁻¹ and the kon [12] was 280000 M⁻¹ s⁻¹.

B3: humanised affinity-optimized anti-BDNF antibody B18 (antibody, V domains shown)
VH: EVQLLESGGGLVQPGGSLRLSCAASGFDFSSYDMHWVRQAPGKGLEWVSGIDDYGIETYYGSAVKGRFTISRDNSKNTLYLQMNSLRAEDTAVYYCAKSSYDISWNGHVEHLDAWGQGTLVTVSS
VL: SSELTQPPAVSVALGQTVRITCQGDSSGYGYGWYQQKPGQAPVTVIYGKNNRPSGIPDRFSGSSSGNTASLTITGAQAEDEADYYCGTYVSAYYGYAIFGGGTKLTVL
B3: no binding (tested: 300 µg/mL) [1]; no binding (tested: 300 µg/mL) [2]; no binding (tested: 300 µg/mL) [3]. B3: no binding (tested: 300 µg/mL) [4]; no binding (tested: 300 µg/mL) [5]; no binding (tested: 300 µg/mL) [6]. For the same binder, the binding result [7] was “no binding (tested: 300 µg/mL)”, the binding result [8] was “no binding (tested: 300 µg/mL)” and the “IC50 (read off the curve)” value [9] was roughly 0.6 nM. For the same binder, the “PathHunter pTrkB assay” value [10] was 0.29 nM, the “pERK assay” value [10] was 0.95 nM and the Kd [12] was 0.0994 nM. For the same binder, the “T1/2” value [12] was 7.03 h, the koff [12] was 2.8e-05 s⁻¹ and the kon [12] was 290000 M⁻¹ s⁻¹.

B4: anti-BDNF antibody R3BH1 (chicken-human chimeric IgG) (antibody, V domains shown)
VH: AVTLDESGGGLQTPGGGLSLVCKASGFDFSSYDMHWVRQAPGKGLEWVAGIDDGGSDTYYGSAVKGRATISRDNGQSTVRLQLNNLRAEDTGTYYCAKSSYDISWNGHVENIDAWGHGTEVIVSS
VL: ALTQPTSVSTNLGGTVEITCSGAGSGYGYGWFQQKSPGSAPVTVIYSNDKRPSDIPSRFSGSKSGSTGTLTITGVQAEDEAVYFCGTYDSTDAGYAIFGAGTTLTVL
notes: also called R3BH1 IgG; chimeric R3BH1
In the case of B4, the Kd [13] is reported as 34.4 nM, the “T1/2” value [13] is reported as 1.13 min and the koff [13] is reported as 0.0103 s⁻¹. The kon [13] was 303000 M⁻¹ s⁻¹, the Kd [14] was 34.4 nM and the “T1/2” value [14] was 1.13 min. The koff [14] was 0.0103 s⁻¹, the kon [14] was 300000 M⁻¹ s⁻¹ and the binding result [11] was “binds”. B4: no binding (tested: 300 µg/mL) [15]; no binding (tested: 300 µg/mL) [16]; no binding (tested: 300 µg/mL) [17]. B4: no binding (tested: 300 µg/mL) [18]; no binding (tested: 300 µg/mL) [19]; no binding (tested: 300 µg/mL) [20]. B4: no binding (tested: 300 µg/mL) [21].

— patent publication US20160207991A1 (Pfizer, published 2016)
